This note sets out measurements from article PMC2996723 (Journal of molecular biology, 2009).

Series [1] has as its target HIV CA protein (p24) (human immunodeficiency virus (HIV)). Nature of the series: co-sedimentation.
The series “SEC-MALS” concerns the molecule itself. Nature of the series: SEC-MALS.

Where “and” joins values, the source holds several entries; their conditions need not be identical. Equal values may be shown once.

The molecule HIV CA protein (p24) (natural protein) displayed a critical concentration in series [1] of 10 µM.

B1: Rous sarcoma virus (RSV) CA protein, wild type (natural protein)
chain: PVVIKTEGPAWTPLEPKLITRLADTVRTKGLRSPITMAEVEALMSSPLLPHDVTNLMRVILGPAPYALWMDAWGVQLQTVIAAATRDPRHPANGQGRGERTNLNRLKGLADGMVGNPQGQAALLRPGELVAITASALQAFREVARLAEPAGPWADIMQGPSESFVDFANRLIKAVEGSDLPPSARAPVIIDCFRQKSQPDIQQLIRTAPSTLTTPGEIIKYVLDRQKTAPLTDQGIA
Turning to B1, the “stoichiometry N” value in “SEC-MALS” was 2 and 3 and 4.

One may read the stoichiometry N as a count of units in the complex or per binding partner.
